Results reported in the DeepSol protein solubility set.

Experiment: soluble on expression in E. coli; label from the status in PepcDB or PDB records

| Sequence | soluble on expression in E. coli |
| --- | --- |
| AHHHHHHGSVNIMDEIIVVTTPTIPGYKIIEVKGIARGGIVMATHLGRDILALLRNIKGGEVKEYTQMMAEAREEALRRMIEHAKKLGANAVVNFRFATSNVGGGMAEVYAYGTAVVVEREK | not soluble |
| MTKALFFDIDGTLVSFETHRIPSSTIEALEAAHAKGLKIFIATGRPKAIINNLSELQDRNLIDGYITMNGAYCFVGEEVIYKSAIPQEEVKAMAAFCEKKGVPCIFVEEHNISVCQPNEMVKKIFYDFLHVNVIPTVSFEEASNKEVIQMTPFITEEEEKEVLPSIPTCEIGRWYPAFADVTAKGDTKQKGIDEIIRHFGIKLEETMSFGDGGNDISMLRHAAIGVAMGQAKEDVKAAADYVTAPIDEDGISKAMKHFGII | soluble |
| YSQVQLPFNDLLYIETSSRSHRVVLYTEKDRMEFTATLGDILKQEPRLFQCHRSFLVNPLNIFKVDRIDRLVYFQNGTTCLVSRNKVRDIVSIVDKYQKDRKR | not soluble |
| SHMPASVQLHTAVEMHHWCIPFSVDGQPAPSLRWLFNGSVLNETSFIFTEFLEPAANETVRHGCLRLNQPTHVNNGNYTLLAANPFGQASASIMAAFMDNPFEFNPEDPIPDTNSTSGDPVEKKDE | soluble |
| PSTLELLKDVHLGLPVPCHDPARLALLSGHYLYYHYGCDGLDDRGWGCGYRTLQTLCSWPGGQSSGVPGLPALQGALEAMGDKPPGFRGSRNWIGCVEASLCLEHFGGPQGRLCHLPRGVGLRGEEERLYSHFTTGGGPVMVGGDADAQSKALLGICEGPGSEVYVLILDPHYWGTPKNRCELQAAGWVGWQKVKSVFDSNSFYNLCFTRLEHHHHHH | soluble |
| MDLTNGGVSPAATSAPLDWTTFRRVFLIDDAWRPLMEPELANPLTAHLLAEYNRRCQTEEVLPPREDVFSWTRYCTPDEVRVVIIGQNPYHHPGQAHGLAFSVRANVPPPPSLRNVLAAVKNCYPEARMSGHGCLEKWARDGVLLLNTTLTVKRGAAASHSRIGWDRFVGGVIRRLAARRPGLVFMLWGTHAQNAIRPDPRVHCVLKFSNPSPLSKVPFGTCQHFLVANRYLETRSISPIDWSV | soluble |
| PNFSHWGPPRIVEIFREPNVSLGISIVGGQTVIKRLKNGEELKGIFIKQVLEDSPAGKTNALKTGDKILEVSGVDLQNASHSEAVEAIKNAGNPVVFIVQSLSSTPRVIP | soluble |
| DIGCYTLGINKPLEGVDITICMGASVGVSNGLAHVLNNKIIATIGDSTFIHAGIPPLINAVYNHADFVLVILDNSTTGMTGHQPHPGTGFRGCGEAGKAVRIEDIVRGCGVEFVEVVNPYNVRKMVDVLRRALNHDGVAVVIARQPCAILWSRARRREGKIVTYKVTEDC | not soluble |
| NDSLVLFSTDLKLLWANRSAEHLYGDYVEQLVGQEFTSLKGARGIPSDAIAVRASLGSGEPCYERVSAADGRIWDMKYFPVRGED | not soluble |
| MSLTTFLFRNGALLDPDHPDLLQGFEILIEDGFIREVSDKPIKSSNAHVIDVKGKTIMPGLIDLHVHVVAIEFNLPRVATLPNVLVTLRAVPIMRAMLRRGFTTVRDAGGAGYPFKQAVESGLVEGPRLFVSGRALSQTGGHADPRARSDYMPPDSPCGCCVRVGALGRVADGVDEVRRAVREELQMGADQIKIMASGGVASPTDPVGVFGYSEDEIRAIVAEAQGRGTYVLAHAYTPAAIARAVRCGVRTIEHGNLIDDETARLVAEHGAYVVPTLVTYDALASEGEKYGLPPESIAKIADVHGAGLHSIEIMKRAGVKMGFGTDLLGEAQRLQSDEFRILAEVLSPAEVIASATIVSAEVLGMQDKLGRIVPGAHADVLVVDGNPLKSVDCLLGQGEHIPLVMKDGRLFVNELEGHEGHHHHHH | soluble |
| MAHHHHHHMIIEKGEPLNKEIIDHVLDHVTEFPTPTMVSVGDGKADCIVLENFLTHEECDQLVAACEKVGYTFWLQKNHHDADGEATCDSGSKAVRVVDTIEANFPHLSAKLYERIARVVSLKPKCFSEDMPNAEELFERELAGTWVPHALSENLLFGRYHPGGHFMPHVDGATILDLNTRSFYTLLIYLNDCLHGGETFIFAGEQCNVMYLDEKENQYRGNATQRVGAVYPKKGSAAFFYYNLLHEGAPVLEGHKYICRADLLYHRTPTIFTSEADEKAFKAYQEARLAESHGDAERACQLFQRVRKLSKGVASIFQIE | soluble |
| MMIENDETLNELHNDEEFCIKEQLSHVDHDEKVHVDSIVKKSECAHNYEQREKRDRSSSVDSKPEIKKICRCHESNCSKSSKYEKSSCGSKNKSGDSLSTASTGINECLNNSKNLNEPFKFFIGGIPQYITSKDTHELNGKRVDVREENNTTPSDIQRKIFVGGLNYYWTKDTLESYFSTFGEIDVVQIVLDSSGRSRCFGFVVFSNENSVAKVLKHKRHKIYDKMVEVRKAEPKKPKMSIKRSNNKNFSKFPPHIPFMAPFPPCNKETMAQWANFMYNTCGVPFLFNQRFQNLPDFYSNYNYYQNSLENIQQSEYNN | not soluble |
| MSGKRALITGIRGQDGAYLAKLLLEKGYEVYGADRRSGEFASWRLKELGIENDVKIIHMDLLEFSNIIRTIEKVQPDEVYNLAAQSFVGVSFEQPILTAEVDAIGVLRILEALRTVKPDTKFYQASTSEMFGKVQEIPQTEKTPFYPRSPYAVAKLFGHWITVNYREAYNMFACSGILFNHESPLRGIEFVTRKITYSLARIKYGLQDKLVLGNLNAKRDWGYAPEYVEAMWLMMQQPEPDDYVIATGETHTVREFVEKAAKIAGFDIEWVGEGINEKGIDRNTGKVIVEVSEEFFRPAEVDILVGNPEKAMKKLGWKPRTTFDELVEIMMEADLKRVRDREVSV | soluble |
| MNYKSPVYNVTPIHYTKLQANNYNPNTVPATELKLLEKSIWEDGFTQPIVCYPLENSDKYEIIDGFHRYTIMQTSKRIREREKELLPVVILEKDTVNRIASTIRHNRARGFHNVELMSSIVGELADSGMSDSWIMKNIGMDANEILRLKQVSGLTHLFLDKEFSKASD | not soluble |
| MAVSATGFEGFEKRLEISFFETTDFLDPQGKSLRSLTKSQLDEILTPAECTIVSSLTNSFVDSYVLSESSLFVYPYKIIIKTCGTTKLLLSIPHILRLADSLCLTVKSVRYTRGSFIFPGAQSYPHRSFSEEVALLDDYFGKLNAGSKAFVMGGSDNNPQRWHVYSASSTEESAVCDKPVYTLEMCMTGLDNIKASVFFKTNSVSASEMTISSGIRNILPGSEICDFNFEPCGYSMNSIEGDAVSTIHVTPEDGFSYASFETVGYDLKALNFKELVDRVLVCFGPEEFSVAVHANLGTEVLASDCVADVNGYFSQERELEELGLGGSVLYQRFVKTVECCSPKSTLGFC | not soluble |
| MEMSHRSSYFQSIIDEAGSLLRELMNIPDEYEVLFLQGGASLQFSMIPLNLMNTYKKAGYVLTGSWSKKALQEAEKVGEVQVIASSENEKFTTIPKLDGLLGDEKLDYVHITTNNTIEGTKYVDIPHVDKVPLVADMSPNILSERYDVSKFGLIYAGAQKNLGPAGLTIAIIKRDLIGGADRYCPTMLNYETYSKNNSLYNTLPSFSIYVTKLVLEWLKEQGGVSAIEEQNKMKSSLLYNFLDESKLLTSPVDPAYRSLMNIPFTTPSEELNNEFLQKAKERGLVTLKGHRSVGGMRASIYNAMPVQGVQQLVNYMKEFELENR | not soluble |
| MSLKWSITQLRKYQGKPFEFDQTVSFDNLKESLDLIDLSPITIQGQLTIKSTEVVADIHITGTYTMPCARTLVPVKVPLDVTTTEVFDLEGYNQYNDDQDDVDEHYHIIKDGMVNLQDIVEDIVIIEKPMRAYSEQSDQMLTVGNGWEVIDEDQLDELAKQQEQDDSESRQVDPRLQKLQQLYDKEQEGHHHHHH | soluble |
| MGHHHHHHSHMSEPGKGDDCLELESSMAESRLRAPDLGVSRCLGKCQKNSPGARKHPFSGKSFYLDLPAGKNLQFLTGAIQQLGGVIEGFLSKEVSYIVSSRREVKAESSGKSHRGCPSPSPSEVRVETSAMVDPKGSHPRPSRKPVDSVPLSRGKELLQKAIRNQVSWGKMGQSRWSPA | not soluble |
| GSHMASPTPAPSQSPIRRDAFSIIEAEEYNSTNSSTLQVIGTPNNGRGIGYIENGNTVTYSNIDFGSGATGFSATVATEVNTSIQIRSDSPTGTLLGTLYVSSTGSWNTYNTVSTNISKITGVHDIVLVFSGPVNVDNFIFSRSS | soluble |
| MGSDKIHHHHHHMLQMIPARPSRALASLSEAYEECRQITARYAKTFYLGTLLMPEAKRQAIWAIYVWCRRTDELVDGPQAAQTNFATLDAWERRLERLFAGEPEDDCDVALVDTLARYPLDIQPFRDMIEGQRMDLLQNRYSTFEDLYTYCYRVAGTVGLMSQPVMGIESTNSRAPWDPTTPPDPTQEALALGIANQLTNILRDVGEDARRGRIYLPQEELAQFNYSEQDLFNGVIDDRWRAFMQFQLDRARDYFEQAERGIRQLSHDARWPVWASLMLYREILDVIEQNNYDVFRKRAYVPTWRKLCSLPVAMLRATVL | not soluble |
| MGSDKIHHHHHHMADGTSLSIDAKPTEEFSVREVFGIDTDMKVKGFAEPTDRVPAIDPTYKFDPDTTLAILAGYGYNRRVMVQGYHGTGKSTHIEQVGARLNWPTVRVNLDSHISRIDLIGKDAIKLRDGKQVTEFHEGILPWALRNPVAIVFDEYDAGRADVMFVIQRVLETDGKLTLMDQNEIITPNPCFRLFATANTVGLGDTTGLYHGTQQINQAQMDRWSLVATLNYLRHDAEVNIVLAKCPHYNTETGRKTMNQMVTVADLTRTAFMNGELSTVMSPRTVINWAQNAEIFRDVGYAFRVSFLNKCDELERQTVAEFYQRCFDEELPESAASMSLG | not soluble |
| MGSDKIHHHHHHALGVVDEVHAGKEIGLQIYSLSQELYKGDVAANLRKVKDMGYSKLELAGYGKGAIGGVPMMDFKKMAEDAGLKIISSHVNPVDTSISDPFKAMIFKYSKEVTPKIMEYWKATAADHAKLGCKYLIQPMMPTITTHDEAKLVCDIFNQASDVIKAEGIATGFGYHNHNMEFNRVATKEQQEKVKGNPFAAFMKVGDQIYDLMLKDTDPSKVYFEMDVYWTVMGQNDPVEYMQKHPDRIKVLHIKDRAVFGQSGMMNFEMIFKQMYANGIKDYFVELEQMPDGRTQFAGVKDCADYLIKAPFVK | not soluble |
| MGSDKIHHHHHHEDDCATNPEPAGDVTEIKLSAGIQGVATRTPVSTNDNITAPFVASATTGDYTTNAWSSTVTFVASPTPTAALSFSPARYYPVDNSPIYIRGYYPAGTLSGKTVTLAGDGTEDVMLTAQASGTKATAGALSFVFNHLLTQLQFKLVAGAGYPASGVNVTSLVIKQQKTPATLDLNTSSLTYTTKDLTLSGTFPILTAGSTINNYPMVKSGEALTVAVTTSDGVTYPESTISVTTEVGKSHLITLTFTPKEITSSISVTAWQTGGTGSSTLQ | not soluble |
| SLKIYRSTLLHTPASPFAVPDALQTFSDGALAVGDTGTIAHLGTFTEVLAEVRAACPDAEVHDLRGGVLLPGFIDTHVHYPQVRVLGGLGMALLEWLDRNTLPEEARLADAAYARTIAGEFLHGLASHGTTTALVFGSHFAGAMDEFFAEAAARGLRVVAGQVVSDRLLRPELHTTPERAYAEGKALIERWHGQGRSLYAVTPRFSLSASEGILDACAALLTEFPDVRFTSHINENNQEIEVVRGLFPGARDYLDTYERAGLVTPRSVFAHNVHPNERELGVLAAQRCSVAHCPCSNSALGSGLFPLRRHLAAGVHVALGTDVGGGTGFSLLKEGLQAYFMQQLLGEEGAALSPAHLLYLATLAGAQALGLDGQVGDFTPGKQFDAVWLRPRAGSTLATVLAHAESEERTLAALFALGTGDDVERVWVGGGVVFAREAEA | soluble |
